Data on two variants can be found in IntAct's records for PubMed 12649160.

The labels stand for the following.
B1: Fanconi anemia group C protein (Homo sapiens), Q00597 (parent)
chain: MAQDSVDLSCDYQFWMQKLSVWDQASTLETQQDTCLHVAQFQEFLRKMYEALKEMDSNTVIERFPTIGQLLAKACWNPFILAYDESQKILIWCLCCLINKEPQNSGQSKLNSWIQGVLSHILSALRFDKEVALFTQGLGYAPIDYYPGLLKNMVLSLASELRENHLNGFNTQRRMAPERVASLSRVCVPLITLTDVDPLVEALLICHGREPQEILQPEFFEAVNEAILLKKISLPMSAVVCLWLRHLPSLEKAMLHLFEKLISSERNCLRRIECFIKDSSLPQAACHPAIFRVVDEMFRCALLETDGALEIIATIQVFTQCFVEALEKASKQLRFALKTYFPYTSPSLAMVLLQDPQDIPRGHWLQTLKHISELLREAVEDQTHGSCGGPFESWFLFIHFGGWAEMVAEQLLMSAAEPPTALLWLLAFYYGPRDGRQQRAQTMVQVKAVLGHLLAMSRSSSLSAQDLQTVAGQGTDTDLRAPAQQLIRHLLLNFLLWAPGGHTIAWDVITLMAHTAEITHEIIGFLDQTLYRWNRLGIESPRSEKLARELLKELRTQV
partner: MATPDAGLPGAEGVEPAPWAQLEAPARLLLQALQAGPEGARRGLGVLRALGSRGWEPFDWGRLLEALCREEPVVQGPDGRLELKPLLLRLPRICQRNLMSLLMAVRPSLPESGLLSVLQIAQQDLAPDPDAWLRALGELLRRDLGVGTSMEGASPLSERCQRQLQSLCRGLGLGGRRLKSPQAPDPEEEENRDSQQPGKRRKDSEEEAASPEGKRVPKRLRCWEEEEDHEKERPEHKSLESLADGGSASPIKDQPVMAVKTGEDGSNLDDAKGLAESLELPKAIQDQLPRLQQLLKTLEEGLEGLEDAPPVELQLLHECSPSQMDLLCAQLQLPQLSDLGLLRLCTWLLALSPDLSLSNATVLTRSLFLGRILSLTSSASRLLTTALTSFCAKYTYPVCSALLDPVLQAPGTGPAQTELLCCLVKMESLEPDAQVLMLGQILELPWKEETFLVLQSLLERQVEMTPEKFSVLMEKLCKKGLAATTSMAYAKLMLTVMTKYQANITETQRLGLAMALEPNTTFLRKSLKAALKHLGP
B2: Fanconi anemia group G protein (Homo sapiens), O15287 (parent)
chain: MSRQTTSVGSSCLDLWREKNDRLVRQAKVAQNSGLTLRRQQLAQDALEGLRGLLHSLQGLPAAVPVLPLELTVTCNFIILRASLAQGFTEDQAQDIQRSLERVLETQEQQGPRLEQGLRELWDSVLRASCLLPELLSALHRLVGLQAALWLSADRLGDLALLLETLNGSQSGASKDLLLLLKTWSPPAEELDAPLTLQDAQGLKDVLLTAFAYRQGLQELITGNPDKALSSLHEAASGLCPRPVLVQVYTALGSCHRKMGNPQRALLYLVAALKEGSAWGPPLLEASRLYQQLGDTTAELESLELLVEALNVPCSSKAPQFLIEVELLLPPPDLASPLHCGTQSQTKHILASRCLQTGRAGDAAEHYLDLLALLLDSSEPRFSPPPSPPGPCMPEVFLEAAVALIQAGRAQDALTLCEELLSRTSSLLPKMSRLWEDARKGTKELPYCPLWVSATHLLQGQAWVQLGAQKVAISEFSRCLELLFRATPEEKEQGAAFNCEQGCKSDAALQQLRAAALISRGLEWVASGQDTKALQDFLLSVQMCPGNRDTYFHLLQTLKRLDRRDEATALWWRLEAQTKGSHEDALWSLPLYLESYLSWIRPSDRDAFLEEFRTSLPKSCDL
partner: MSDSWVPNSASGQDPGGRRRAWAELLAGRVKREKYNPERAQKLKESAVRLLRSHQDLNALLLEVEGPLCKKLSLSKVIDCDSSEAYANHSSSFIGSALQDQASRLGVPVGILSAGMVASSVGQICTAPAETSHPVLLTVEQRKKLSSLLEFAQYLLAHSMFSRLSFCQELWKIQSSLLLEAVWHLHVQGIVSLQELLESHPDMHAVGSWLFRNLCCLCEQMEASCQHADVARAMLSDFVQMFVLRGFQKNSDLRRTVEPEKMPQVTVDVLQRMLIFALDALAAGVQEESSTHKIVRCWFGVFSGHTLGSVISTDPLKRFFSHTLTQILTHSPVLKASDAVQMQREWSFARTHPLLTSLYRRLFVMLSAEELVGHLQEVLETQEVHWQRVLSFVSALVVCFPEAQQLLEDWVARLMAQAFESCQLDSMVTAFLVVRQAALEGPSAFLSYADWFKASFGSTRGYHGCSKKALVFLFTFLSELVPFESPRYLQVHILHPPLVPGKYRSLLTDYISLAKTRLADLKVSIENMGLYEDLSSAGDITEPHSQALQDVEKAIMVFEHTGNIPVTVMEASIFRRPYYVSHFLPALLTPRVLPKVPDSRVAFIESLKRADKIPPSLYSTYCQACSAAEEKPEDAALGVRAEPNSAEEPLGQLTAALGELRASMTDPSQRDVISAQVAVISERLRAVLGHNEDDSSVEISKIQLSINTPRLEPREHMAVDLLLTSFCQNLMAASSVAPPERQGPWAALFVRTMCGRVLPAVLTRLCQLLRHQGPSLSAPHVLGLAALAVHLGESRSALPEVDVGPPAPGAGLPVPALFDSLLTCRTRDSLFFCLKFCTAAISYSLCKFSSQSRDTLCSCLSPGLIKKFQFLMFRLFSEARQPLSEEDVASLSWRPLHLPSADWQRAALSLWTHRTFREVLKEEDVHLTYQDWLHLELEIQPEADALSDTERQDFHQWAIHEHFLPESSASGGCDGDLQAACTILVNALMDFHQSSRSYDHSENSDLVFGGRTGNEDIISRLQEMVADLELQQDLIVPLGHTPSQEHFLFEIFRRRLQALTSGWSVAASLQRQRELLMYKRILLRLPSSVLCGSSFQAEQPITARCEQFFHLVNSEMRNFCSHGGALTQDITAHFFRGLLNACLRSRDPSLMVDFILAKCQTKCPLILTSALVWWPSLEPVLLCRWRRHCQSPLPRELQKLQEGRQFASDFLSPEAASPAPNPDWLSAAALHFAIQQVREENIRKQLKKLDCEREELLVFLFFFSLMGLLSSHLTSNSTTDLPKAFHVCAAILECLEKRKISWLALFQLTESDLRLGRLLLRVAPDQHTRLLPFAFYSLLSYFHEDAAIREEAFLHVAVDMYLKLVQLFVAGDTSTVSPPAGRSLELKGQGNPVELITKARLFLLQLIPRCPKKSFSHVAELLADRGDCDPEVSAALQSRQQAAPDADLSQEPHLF

In the first experiment the parent is B1. Conditions: with fance_human FANCE.
With L554P, the “effect of a mutation on the interaction” value is “disrupting interaction”.

Variants of B2 are the subject of the next experiment. The settings on record: with fanca_human FANCA.
Regarding L71P, the “effect of a mutation on the interaction” value is recorded as “disrupting interaction”.
